Laboratory results: patent publication US20230242871A1, “GENERATION OF PRIMORDIAL GERM CELLS AND METHODS OF USING THE SAME” (The Board of Trustees of the Leland Stanfor Junior …, priority 2020, published 2023)

Tested on: NANOS3-mCherry hESCs
Assay: PGC differentiation of NANOS3-mCherry hESCs, flow cytometry for NANOS3-mCherry fluorescent reporter expression
Format: cell-based, human
From the text: In the NANOS3-mCherry hESC line, a 2A-mCherry fluorescent reporter was inserted immediately downstream of the NANOS3 gene without disrupting its coding sequence (Irie et al., 2014). In the SOX17-GFP hESC line, a GFP fluorescent reporter was inserted immediately after the SOX17 start codon, thus functionally invalidating one SOX17 allele (Wang et al., 2011). In the NANOG-2A-YFP hESC line, Cas9 RNP/AAV6-based genome editing (Martin et al., 2019) was used to insert a 2A-iCaspase9-2A-YFP fluorescent reporter immediately downstream of the NANOG gene without disrupting the NANOG coding sequence.
hPSC differentiation into PGCs. Undifferentiated hPSCs were maintained in mTeSR1 + 1% penicillin/streptomycin and enzymatically passaged (Accutase, 1:8-1:12 split) for differentiation. After overnight recovery in mTeSR1 + Thiazovivin (ROCK inhibitor, 5 µM), the following morning, hPSCs were briefly washed (DMEM/F12) and differentiated into posterior epiblast for 12 hours (100 ng/mL Activin + 3 µM CHIR99021 + 10 µM Y-27632) in aRB27 basal media, which comprised Advanced RPMI 1640 medium supplemented with 1% B27 supplement, 0.1 mM non-essential amino acids (NEAA), 100 U/ml Penicillin + 0.1 mg/ml Streptomycin, and 2 mM L-Glutamine (Kobayashi et al., 2017). Subsequently, […], […], […], 100 ng/mL SCF, 50 ng/mL EGF, 1 µM XAV939, and 10 µM Y-27632 for 24 hours (all in aRB27 basal media). For comparison, published PGC differentiation protocols (Sasaki et al., 2015; Kobayashi et al., 2017) were performed as described previously.
Flow cytometry and fluorescence-activated cell sorting (FACS) for cell-surface marker expression. hPSCs or their differentiated derivatives were dissociated using TrypLE Express (Gibco), were washed off the plate with FACS buffer (PBS + 0.1% BSA fraction V [Gibco] + 1 mM EDTA [Gibco] + 1% penicillin/streptomycin [Gibco]) and were pelleted by centrifugation (5 mins, 4° C.). Subsequently, cell pellets were directly resuspended in FACS buffer containing pre-diluted primary antibodies (listed below), thoroughly triturated to ensure a single cell suspension, and primary antibody staining was conducted for 30 mins on ice. Afterwards, cells were washed with an excess of FACS buffer and pelleted again, and this was conducted one more time. Finally, washed cell pellets were resuspended in FACS buffer containing 1.1 µM DAPI (Biolegend), and were strained through a 35 µm filter. Flow cytometry and sorting was conducted on a BD FACSAria II (Stanford Stem Cell Institute FACS Core).

B1: BMP4: bone morphogenetic protein 4, UniProt P12644 (protein, UniProt P12644 293-408, looked up)
Bone morphogenetic protein 4: SPKHHSQRARKKNKNCRRHSLYVDFSDVGWNDWIVAPPGYQAFYCHGDCPFPLADHLNSTNHAIVQTLVNSVNSSIPKACCVPTELSAISMLYLDEYDKVVLKNYQEMVVEGCGCR
efficiency upon BMP4 subtraction (BMP4 subtraction from D1.5-2.5, in BMP4 + SCF + EGF + XAV939 + Y-27632 D0.5-3.5, readout D3.5, FIG. 5C): enhance efficiency
efficiency on BMP4 titration (BMP4 titrated to 20 ng/mL on D0.5-3.5, monolayer, readout D3.5, FIG. 5D): without significant loss in efficiency
differentiation of PGCs, BMP4 not omitted (continuous BMP4 in second phase, FIG. 5C): about 10%
differentiation of PGCs, BMP4 omitted (omitting BMP4 from the culture media for 24 hrs at day 2 of differentiation, FIG. 5C): ~30%
